In the supplement of paper PMC12042874:
± gives the uncertainty stated by the source.

Experiment: amyloid nucleation score (Sup35N fusion, yeast selection) (log enrichment); library NNK2; higher = more nucleation; inactive = no reads after selection
Method in brief: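 For the nucleation score, DiMSum gave the log enrichment of output over input reads, centred on the mode score of non-aggregating sequences. Psi-negative yeast expressing Sup35N fused to peptides of 20 random codons were induced with 100 μM copper sulfate for 24 hours and grown 7 days at 30°C on medium lacking adenine and uracil. Input and output plasmid inserts were Illumina-sequenced, and sequences with under 100 input reads were excluded.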

Going from RPGHYRTWYFSGFYSSPCQT to RPGMARVFNAA, the amyloid nucleation score falls from 1.49 ± 0.19 to 0.673 ± 0.36.

Compared with RPNAVVFLTDNNVRRSDCWV, RPSSWVVRCE is higher in amyloid nucleation score: -0.639 ± 0.28 for the first, 0.223 ± 0.41 for the second.

RPVWDNWLTGFLGMPMWGKT and RQAKPICCHMVLLDSWPKSM are within error of each other in amyloid nucleation score: 0.112 ± 0.43 for the first, 0.164 ± 0.35 for the second.

Going from RQEINSYGNTPRRGGPRLRH to RQIALCGLI, the amyloid nucleation score rises from -0.093 ± 0.55 to 3.47 ± 0.096.

First: RQLHLVLNRVGWMLWYTH
Second: RQYCIKDSWGSSGQLSVGLR
The amyloid nucleation score of the first is lower: 0.684 ± 0.26 for the first, 2.1 ± 0.17 for the second.

Compared with RRDFWPSVSLGCDFRIRFPR, RRMTCALYVIRWFSVHYFYL is lower in amyloid nucleation score: 2.1 ± 0.12 for the first, -1.79 ± 0.75 for the second.

RRRIRVCGSWFSGYN and RRRTEGN are within error of each other in amyloid nucleation score: -0.527 ± 0.5 for the first, 0.304 ± 0.8 for the second.

RRSDKLAVLWYSDKRMARWS and RRVGLSGRTKMSG are within error of each other in amyloid nucleation score: -0.582 ± 0.33 for the first, 0.048 ± 0.55 for the second.

RRYIMQSWLHATSEFPGCDP and RSAFHCNWLISISSGKVSHM are within error of each other in amyloid nucleation score: 0.54 ± 0.53 for the first, -0.452 ± 0.55 for the second.

RSALVGGRHNVVNWVRGSKM and RSAWYTG are within error of each other in amyloid nucleation score: 0.079 ± 0.55 for the first, -0.203 ± 0.5 for the second.

Going from RSFIGDNYISLRC to RSGAVQWRQRMGCMPSVCDR, the amyloid nucleation score rises from -0.184 ± 0.29 to 1.46 ± 0.26.

RSHMSRLIVDFNTG and RSIMIRHLKFRARGHTFSVN are within error of each other in amyloid nucleation score: 0.474 ± 0.3 for the first, 0.143 ± 0.36 for the second.

RSLCDL and RSLHFFTSMHMCGRCLNRLF are within error of each other in amyloid nucleation score: -0.755 ± 0.54 for the first, 0.048 ± 0.45 for the second.

First: RSLSLLLVFLAMCAIMVPMR
Second: RSRSSFLHIFSSFKHISTR
The amyloid nucleation score of the first is higher: 8.575 ± 0.04 for the first, -0.74 ± 1.1 for the second.

Compared with RSSKTNWWTGEISVPYGYWM, RSSLEKIMIGNFNYVRVKLH is higher in amyloid nucleation score: 0.368 ± 0.47 for the first, 2.28 ± 0.18 for the second.

RSSRHLDAYIEAS and RSSSCSNVMMVE are within error of each other in amyloid nucleation score: 0.877 ± 0.28 for the first, 0.935 ± 0.34 for the second.

RSSSRASALTRYLSELGKKS and RSTNTRIIKLTKCAGPNRDE are within error of each other in amyloid nucleation score: 0.694 ± 0.39 for the first, 1.14 ± 0.17 for the second.

Compared with RSVACVDDMHE, RSVVVGGHNLRISTQAILIP is lower in amyloid nucleation score: 4.916 ± 0.049 for the first, 0.34 ± 0.64 for the second.

Going from RTDRLCARHLGLFDDTVPET to RTGHTINFVEQPMHTVPMWH, the amyloid nucleation score rises from 0.664 ± 0.21 to 5.08 ± 0.068.

Compared with RTGRDFLSSIFFTSK, RTIQMVTSQSLPCFC is higher in amyloid nucleation score: -1.8 ± 0.41 for the first, 6.196 ± 0.042 for the second.

Going from RTVQQIAPVGGHERVKC to RTVRTAAMLTCGW, the amyloid nucleation score rises from -0.175 ± 0.26 to 0.855 ± 0.48.

First: RTWQCDDWSQYLLVVF
Second: RTYEMKAMRVASWQSS
The amyloid nucleation score of the first is lower: -0.1 ± 1 for the first, 1.9 ± 0.098 for the second.

Going from RTYEMVIKFSGSLVRAFRVL to RVADVCTQVMRGL, the amyloid nucleation score rises from -0.068 ± 0.79 to 1.9 ± 0.33.

First: RVASVSYVSVWYEMCQCFRG
Second: RVCMINSYLLVTRCVGDN
The amyloid nucleation score of the first is higher: 9.503 ± 0.082 for the first, 8.387 ± 0.028 for the second.

Going from RVDFFRFSVQSESWSVLH to RVFLSGSWSTHGNFCRLRNV, the amyloid nucleation score falls from 0.334 ± 0.35 to -0.449 ± 0.41.

First: RVGCLWFRLYPLYSGFMRSR
Second: RVGSFG
The amyloid nucleation score of the first is lower: -1.08 ± 1 for the first, 0.596 ± 0.4 for the second.

RVISGSMVETIDEDIVEGVN and RVLRSETYDSFSL are within error of each other in amyloid nucleation score: -0.332 ± 0.3 for the first, -0.163 ± 0.32 for the second.

RVMEYEILLIFCI and RVMRVISRPEELAWVA are within error of each other in amyloid nucleation score: 0.135 ± 0.65 for the first, 0.602 ± 0.29 for the second.

Compared with RVNCSFTDFVDVVIWKGRGN, RVNMDAGVLSVHLEAVGFHM is lower in amyloid nucleation score: 5.07 ± 0.089 for the first, 4.08 ± 0.057 for the second.

Compared with RVNNLLEKEGTSYGEFAYGL, RVPFWFT is lower in amyloid nucleation score: 0.182 ± 0.45 for the first, -1.2 ± 0.49 for the second.

Compared with RVPGPVHSSCYTAARFFCPM, RVPSSHF is lower in amyloid nucleation score: 1.83 ± 0.14 for the first, 1 ± 0.47 for the second.

Going from RVSDRHV to RVSHEHVYLSNFVTPWLCYY, the amyloid nucleation score rises from 1.42 ± 0.099 to 5.913 ± 0.049.

Going from RWARQRAWTRLLNGE to RWCSLDSQSDYSSM, the amyloid nucleation score falls from 1.18 ± 0.48 to -0.681 ± 1.

RWMVHAA and RWTLWFEGRLERLVAIIS are within error of each other in amyloid nucleation score: -0.251 ± 0.76 for the first, -0.133 ± 1 for the second.

Compared with RYAINCVEAYGLC, RYASDFWILNICAGDIVILL is higher in amyloid nucleation score: -0.387 ± 0.63 for the first, 8.495 ± 0.054 for the second.

RYGPIWGYCNKLFWARCTQL and RYISPSQSAQVSGHLRNVQL are within error of each other in amyloid nucleation score: 0.2 ± 0.49 for the first, 0.689 ± 0.62 for the second.

RYKKAHSSALRCK and RYLIGNSGNYVNGCVEQALR are within error of each other in amyloid nucleation score: 0.988 ± 0.74 for the first, -0.365 ± 0.76 for the second.

RYLNWRVCSNRLPGSEGLWA and RYNHRFKVVLSHNIDLWQGS are within error of each other in amyloid nucleation score: 0.323 ± 0.32 for the first, 0.689 ± 0.47 for the second.

RYPIVRTDMYIIVKFI and RYRRFVIGVQWQRLSRG are within error of each other in amyloid nucleation score: 0.509 ± 0.81 for the first, -0.19 ± 1.1 for the second.

First: RYRTMSTRHPAYGVGGLLLM
Second: RYSNMLN
The amyloid nucleation score of the first is lower: 0.544 ± 0.36 for the first, 3.83 ± 0.096 for the second.

RYVLSMFQLLLTYVQL and RYVTKGLCLL are within error of each other in amyloid nucleation score: 0.561 ± 0.23 for the first, 1.16 ± 0.47 for the second.

Compared with RYYHLCAI, SAADQPKWRSTTSCVPSDVS is higher in amyloid nucleation score: 0.289 ± 0.8 for the first, 3.74 ± 0.068 for the second.

SACNARRVPFG and SAHFTIRKELFLKDTRRVV are within error of each other in amyloid nucleation score: 0.788 ± 0.51 for the first, -0.47 ± 1 for the second.

Compared with SARHDSRVYNWGLFMKYDVN, SARSIERSDYPMINARHHAC is lower in amyloid nucleation score: 4.12 ± 0.084 for the first, 0.031 ± 0.34 for the second.

First: SATEWIISVGGRAWRF
Second: SCAHCCHRKVLR
The amyloid nucleation score of the first is higher: 2.65 ± 0.12 for the first, 0.53 ± 0.3 for the second.

SCALF and SCCMGICGKDLCDGIELKFP are within error of each other in amyloid nucleation score: -0.679 ± 1.1 for the first, -0.936 ± 1 for the second.

SCFGNVYGGVVLQAFGGVVS and SCLLWAF are within error of each other in amyloid nucleation score: 0.082 ± 1.1 for the first, -1.54 ± 1.1 for the second.

Compared with SCLMIIPFVFMFEHYTFEEG, SCRSIRYEWRHDTVGRRSTR is lower in amyloid nucleation score: 7.71 ± 0.082 for the first, 3.2 ± 0.064 for the second.

SCSRWWFWRNATLEVLSKVR and SCTALVKEKMRG are within error of each other in amyloid nucleation score: 0.697 ± 0.81 for the first, 0.48 ± 0.32 for the second.

First: SDAFGRRHSSLAM
Second: SDCFMGANDVMNKLEYGLDA
The amyloid nucleation score of the first is higher: 1.56 ± 0.14 for the first, 0.091 ± 0.22 for the second.

SDGARLWR and SDIYRSSRLQ are within error of each other in amyloid nucleation score: 0.097 ± 1.1 for the first, 0.179 ± 0.33 for the second.

SDMTNS and SDNAEGVSANFFVRPILSVF are within error of each other in amyloid nucleation score: -1.55 ± 0.64 for the first, -1.47 ± 1.1 for the second.

Going from SDQQYGCDWVWLGRGPIEVA to SDSGQVVNSLGSKEGIRFFD, the amyloid nucleation score falls from 0.252 ± 0.28 to -1.17 ± 0.38.

SDTFS and SDVKYIGMCSCQHSFIMMGM are within error of each other in amyloid nucleation score: 0.68 ± 0.56 for the first, 0.372 ± 0.36 for the second.

Going from SDWII to SDYHLFTYTLGINSTLDGRV, the amyloid nucleation score falls from -0.063 ± 0.56 to -1.3 ± 0.38.

SEAYEGFSYSVLQYEP and SEEIGLT are within error of each other in amyloid nucleation score: -0.092 ± 0.36 for the first, 0.426 ± 0.26 for the second.

SEFLRKVSFFLFYLFSSGHL and SEFVGSYWGFDLMLGLD are within error of each other in amyloid nucleation score: -0.73 ± 0.61 for the first, -0.807 ± 1 for the second.

SELFQLIGILHSNLFGIYMF and SEWSRDRKRVKVSHFA are within error of each other in amyloid nucleation score: -0.427 ± 0.74 for the first, 0.465 ± 0.17 for the second.

Going from SEYVCSCYFSGLLNKLRLVE to SFACVSLIFISY, the amyloid nucleation score rises from 0.356 ± 0.43 to 5.72 ± 0.063.

Going from SFFCMKQMLNFL to SFFLFWRFCIGAW, the amyloid nucleation score falls from 0.533 ± 0.35 to -0.977 ± 0.63.

SFFQESHKRIDRVYKYGMGS gave an amyloid nucleation score of -0.96 ± 0.28.

With RQFLSPNYATECGFQLRVGI the amyloid nucleation score was “inactive”.
For RRRVDSLIFYIKMRVLFNMF, the amyloid nucleation score was “inactive”.
With RSGLSVIYLYY the amyloid nucleation score was “inactive”.
In the case of RTSGAVDCTHRFFSEWFKGV, the amyloid nucleation score is reported as “inactive”.
In the case of RWYSYYTQGDFRRFFLGSN, the amyloid nucleation score is reported as “inactive”.
In the case of SAVFLLRLCTQIKCMTVR, the amyloid nucleation score is reported as “inactive”.
In the case of SCYLVVFPKIC, the amyloid nucleation score is reported as “inactive”.
With SEYVLLT the amyloid nucleation score was “inactive”.
